Laboratory results taken from the supplement of paper PMC10567573.

B1: CDC34 (parent)
chain: GGYFKARLKFPIDYPYSPPAFRFL
B2: FAM9B (parent)
chain: EDLTAKRKRMKMDKTCSKTKNKSK

Variants of: B1
Assay: protein stability index of a GFP-peptide fusion (GPS, HEK-293T) (PSI 1-6); higher = more stable
Conditions: c terminus: a fixed tail appended
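Note: lentivirally expressed fusions sorted by FACS into six bins by GFP to DsRed ratio, PSI derived from sequencing read proportions per bin multiplied by bin number.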

Variant | protein stability index
I12V | 1.8
I12M | 1.39
I12S | 3.06
I12Y | 3.17
I12W | 2.12
I12R | 1.7
I12N | 2.22
D13Q | 2.73
D13H | 3.16
D13R | 3.03
D13K | 3.03
D13M | 1.68
D13S | 2.34
D13N | 2.64
D13C | 2.51
D13E | 1.97
D13A | 3.56
D13G | 4.23
D13F | 3.1
D13L | 3.38
D13V | 3.06
D13W | 2.7
D13T | 2.82
D13I | 3.04
R22V | 4.1

Variant | protein stability index
R22D | 3.74
R22P | 2.62
R22S | 2.8
R22I | 2.74
R22L | 2.97
R22F | 3.63
R22M | 3
R22G | 2.78
R22A | 4.99
R22Q | 2.65
R22N | 2.73
R22K | 2.74
R22H | 2.87
R22E | 2.58
R22C | 4.57
R22T | 2.52
R22Y | 2.7
P15E | 2.84
P15H | 3.92
P15I | 2.75
P15V | 2.21
P15N | 2.31
P15D | 3.29
P15L | 2.92
P15Y | 2.56

Variant | protein stability index
P15C | 3.05
P15W | 2.9
P15A | 3.19
P15G | 2.62
P15F | 3.14
P15M | 3.04
P15T | 2.51
P15S | 3.76
P15Q | 2.06
P19D | 2.21
P19C | 3.03
P19M | 3.23
P19L | 3.41
P19T | 3.29
P19N | 3.27
P19A | 2.29
P19I | 2.56
P19W | 3.02
P19H | 2.67
P19V | 2.35
P19E | 2.21
P19Y | 4.32
P19F | 2.96
P19R | 3.69
P19Q | 2.55

Variant | protein stability index
P19K | 2.99
P19S | 2.64
S17K | 3.04
S17V | 4.24
S17M | 2.9
S17Q | 2.58
S17W | 2.82
S17N | 3.85
S17D | 2.77
S17G | 2.85
S17Y | 2.44
S17H | 3.25
S17R | 3.12
S17F | 2.93
S17I | 3.04
S17E | 3.71
F23L | 1.54
F23H | 4.27
F23V | 3.6
F23G | 1.09
F23Y | 1.26
F23R | 2.42
F23D | 2.71
F23S | 2.95
F23K | 2.8

Variant | protein stability index
F23E | 2.19
F23N | 2.95
F23Q | 1.48
F23I | 2.08
F23T | 2.74
F23A | 2.82
F23P | 3.15
F23M | 2.48
F23W | 1.43
L24V | 3.43
L24N | 3.21
L24E | 1.76
L24T | 3.35
L24G | 2.44
L24R | 3.94
L24A | 3.55
L24Q | 2.95
L24F | 2.89
L24D | 2.33
L24M | 2.76
L24Y | 2.4
L24K | 3.77
L24W | 2.05
F21D | 2.34
F21G | 3.19

Variant | protein stability index
F21N | 1.88
F21I | 2.48
F21E | 1.65
F21T | 2.67
F21M | 2.15
F21A | 2.57
F21R | 2.82
F21S | 1.54
F21Y | 1.53
F21Q | 3.14
F21K | 2.16
F21C | 2.55
F21V | 3.33
F21W | 3.02
A20D | 2.18
A20C | 1.71
A20G | 2.29
A20H | 3.05
A20K | 3.03
A20R | 3.03
A20W | 2.98
A20E | 3.68
A20F | 3.14
A20Q | 2.41
A20S | 2.54

Variant | protein stability index
A20V | 2.96
A20I | 3.02
A20M | 3.57
A20T | 2.95
A20L | 2.52
Y16V | 3.55
Y16L | 2.18
Y16R | 2.6
Y16H | 3.2
Y16F | 2.86
Y16N | 2.71
Y16G | 2.83
Y16S | 2.6
Y16E | 2.23
Y16K | 3.31
Y16I | 3.09
Y16W | 2.43
Y16C | 2.73
Y16T | 2.81
Y16D | 1.57
Y16A | 2.38
Y16M | 1.99
P18K | 3.31
P18Q | 3.79
P18S | 3.15

Variant | protein stability index
P18E | 2.34
P18W | 2.38
P18A | 2.96
P18N | 2.51
P18F | 2.42
P18G | 2.4
P18M | 2.19
P18H | 2.33
P18Y | 2.48
P18L | 2.54
P18C | 3.4
P18D | 2.34
Y14M | 2.8
Y14N | 2.47
Y14D | 3.03
Y14Q | 1.82
Y14I | 2.16
Y14G | 1.88
Y14S | 4.54
Y14C | 2.57
Y14E | 2.06
Y14L | 2.75
Y14K | 2.75
Y14R | 2.09
Y14V | 2.7

Variants of: B2
Assay: as above
Conditions: c terminus: a fixed tail appended

Variant | protein stability index
E1P | 4.9
E1C | 3.08
E1K | 4.89
E1F | 4.53
E1Y | 3.72
E1H | 4.87
E1V | 4.96
E1M | 4.15
E1W | 3.89
E1L | 4.38
E1Q | 4.99
E1A | 4.77
E1D | 5.32
E1R | 4.64
E1S | 5.16
E1I | 4.08
E1N | 5.29
E1G | 4.86
E1T | 4.91
L3R | 5.17
L3A | 4.91
L3V | 5.63
L3Q | 5.51

Variant | protein stability index
L3N | 5.15
L3H | 5.43
L3Y | 5.23
L3E | 5.77
L3F | 4.98
L3W | 4.6
L3K | 5.4
L3P | 5.39
L3D | 5.5
L3T | 5.33
L3M | 5.13
L3G | 5.66
L3C | 5.09
L3S | 4.99
K6P | 5.59
K6L | 4.85
K6E | 5.7
K6F | 4.42
K6Y | 5.19
K6N | 4.85
K6T | 4.68
K6G | 5.69
K6R | 5.33

Variant | protein stability index
K6D | 5.33
K6H | 5.37
K6C | 4.78
K6M | 4.67
K6A | 4.87
K6W | 4.29
K6Q | 5.12
K6S | 5.26
K6V | 4.65
K6I | 5.1
T4S | 4.74
T4L | 4.6
T4Y | 4.21
T4M | 4.45
T4I | 4.58
T4F | 4.72
T4N | 4.8
T4R | 4.64
T4D | 5.5
T4G | 5.14
T4E | 5
T4K | 5.54
T4C | 4.52

Variant | protein stability index
T4V | 5.02
T4W | 4.38
T4P | 4.96
T4A | 5.25
T4H | 5.29
T4Q | 4.7
D2T | 4.92
D2N | 4.63
D2E | 5.3
D2Y | 3.69
D2A | 5.42
D2H | 5.01
D2P | 5.51
D2G | 5.21
D2R | 4.43
D2V | 4.86
D2K | 4.9
D2M | 4.44
D2I | 4.16
D2S | 4.63
D2F | 3.65
D2W | 3.49
D2Q | 5.04

Variant | protein stability index
D2L | 4.08
D2C | 4.11
R7L | 4.87
R7A | 5.09
R7V | 4.87
R7P | 5.27
R7Y | 5.11
R7G | 5.54
R7H | 4.95
R7T | 5.46
R7Q | 5.32
R7I | 4.82
R7N | 4.93
R7F | 4.69
R7M | 4.75
R7S | 5.3
R7D | 5.41
R7C | 5.26
R7W | 4.33
R7K | 5.16
R7E | 5.45
K8C | 5.09
K8D | 5.29

Variant | protein stability index
K8F | 4.58
K8A | 4.94
K8E | 4.99
A5W | 5.3
A5S | 5.5
A5Y | 5.13
A5L | 5.37
A5F | 4.42
A5R | 5.23
A5G | 5.47
A5K | 4.15
A5P | 4.92
A5Q | 4.71
A5C | 4.05
A5D | 5.08
A5T | 4.51
A5N | 4.33
A5M | 5.2
A5H | 5.05
